# Data from patent US20190085311.
# Target: glucose dehydrogenase containing the LPETG motif
protein,measurement,value
"Reference 2: P94R/D160N/D165A/G167E/K190E/K196T from U.S. Pat. No. 9,267,127 (SEQ ID NO: 52) (protein) MQAKPQIPKDKSKVAGYIEIPDADIKEPVYPGPATREQLNRGVSFAEENESLDDQNISIAGHTFIDRPNYQFTNLKAAKKGSMVYFKVGNETRKYKMTSIRNVKPTAVEVLDEQKGKDKQLTLITCDDYNEETGVWEKRKIFVATEVK",relative apparent “Km” for LPXTG,lower
D160S/K196S + N107W + E106G (protein) QAKPQIPKDKSKVAGYIEIPDADIKEPVYPGPATPEQLNRGVSFAEGWESLDDQNISIAGHTFIDRPNYQFTNLKAAKKGSMVYFKVGNETRKYKMTSIRSVKPTDVGVLDEQKGKDKQLTLITCDDYNEKTGVWESRKIFVATEVK,relative apparent “Km” for LPXTG,107%
D160S/K196S + N107W (protein) QAKPQIPKDKSKVAGYIEIPDADIKEPVYPGPATPEQLNRGVSFAEEWESLDDQNISIAGHTFIDRPNYQFTNLKAAKKGSMVYFKVGNETRKYKMTSIRSVKPTDVGVLDEQKGKDKQLTLITCDDYNEKTGVWESRKIFVATEVK,relative apparent “Km” for LPXTG,121%
D160S/K196S + A61E (protein) QEKPQIPKDKSKVAGYIEIPDADIKEPVYPGPATPEQLNRGVSFAEENESLDDQNISIAGHTFIDRPNYQFTNLKAAKKGSMVYFKVGNETRKYKMTSIRSVKPTDVGVLDEQKGKDKQLTLITCDDYNEKTGVWESRKIFVATEVK,relative apparent “Km” for LPXTG,100%
D160S/K196S + N107W + F144L + G167E (protein) QAKPQIPKDKSKVAGYIEIPDADIKEPVYPGPATPEQLNRGVSFAEEWESLDDQNISIAGHTFIDRPNYQFTNLKAAKKGSMVYLKVGNETRKYKMTSIRSVKPTDVEVLDEQKGKDKQLTLITCDDYNEKTGVWESRKIFVATEVK,relative apparent “Km” for LPXTG,197%
D160S/K196S + N107W + G167E (protein) QAKPQIPKDKSKVAGYIEIPDADIKEPVYPGPATPEQLNRGVSFAEEWESLDDQNISIAGHTFIDRPNYQFTNLKAAKKGSMVYFKVGNETRKYKMTSIRSVKPTDVEVLDEQKGKDKQLTLITCDDYNEKTGVWESRKIFVATEVK,relative apparent “Km” for LPXTG,166%
D160S/K196S + F144L (protein) QAKPQIPKDKSKVAGYIEIPDADIKEPVYPGPATPEQLNRGVSFAEENESLDDQNISIAGHTFIDRPNYQFTNLKAAKKGSMVYLKVGNETRKYKMTSIRSVKPTDVGVLDEQKGKDKQLTLITCDDYNEKTGVWESRKIFVATEVK,relative apparent “Km” for LPXTG,100%
D160S/K196S + N107W + F144L (protein) QAKPQIPKDKSKVAGYIEIPDADIKEPVYPGPATPEQLNRGVSFAEEWESLDDQNISIAGHTFIDRPNYQFTNLKAAKKGSMVYLKVGNETRKYKMTSIRSVKPTDVGVLDEQKGKDKQLTLITCDDYNEKTGVWESRKIFVATEVK,relative apparent “Km” for LPXTG,134%
D160S/K196S + A61T (protein) QTKPQIPKDKSKVAGYIEIPDADIKEPVYPGPATPEQLNRGVSFAEENESLDDQNISIAGHTFIDRPNYQFTNLKAAKKGSMVYFKVGNETRKYKMTSIRSVKPTDVGVLDEQKGKDKQLTLITCDDYNEKTGVWESRKIFVATEVK,relative apparent “Km” for LPXTG,97%
D160S/K196S + F144L + G167E (protein) QAKPQIPKDKSKVAGYIEIPDADIKEPVYPGPATPEQLNRGVSFAEENESLDDQNISIAGHTFIDRPNYQFTNLKAAKKGSMVYLKVGNETRKYKMTSIRSVKPTDVEVLDEQKGKDKQLTLITCDDYNEKTGVWESRKIFVATEVK,relative apparent “Km” for LPXTG,166%
D160S/K196S + G167E (protein) QAKPQIPKDKSKVAGYIEIPDADIKEPVYPGPATPEQLNRGVSFAEENESLDDQNISIAGHTFIDRPNYQFTNLKAAKKGSMVYFKVGNETRKYKMTSIRSVKPTDVEVLDEQKGKDKQLTLITCDDYNEKTGVWESRKIFVATEVK,relative apparent “Km” for LPXTG,131%
D160S/K196S + E106G (protein) QAKPQIPKDKSKVAGYIEIPDADIKEPVYPGPATPEQLNRGVSFAEGNESLDDQNISIAGHTFIDRPNYQFTNLKAAKKGSMVYFKVGNETRKYKMTSIRSVKPTDVGVLDEQKGKDKQLTLITCDDYNEKTGVWESRKIFVATEVK,relative apparent “Km” for LPXTG,121%
